Test results published in patent US20100092465A1, “TREATMENT OF GRAFT-VERSUS-HOST DISEASE” (priority 2006, published 2010).
Several values for one entry are separate records, joined by “and”; a condition that tells them apart may be missing. Equal values may be shown once.

What was measured:
huIL-27 [1] = target: T1, huIL-27 (Homo sapiens, UniProt Q14213+Q8NEV9); experiment: Phospho-STAT3 neutralization assay, mouse spleens, huIL-27; type: cell-based; conditions: Mouse Spleens; ligand huIL-27 at EC90
T1 sequence (Q14213 21-229): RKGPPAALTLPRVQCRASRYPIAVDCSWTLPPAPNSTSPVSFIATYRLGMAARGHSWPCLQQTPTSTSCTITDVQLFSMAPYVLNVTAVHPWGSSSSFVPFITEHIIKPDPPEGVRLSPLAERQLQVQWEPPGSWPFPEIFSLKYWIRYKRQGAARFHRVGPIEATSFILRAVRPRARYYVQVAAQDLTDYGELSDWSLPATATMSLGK
T1 sequence (Q8NEV9 29-243): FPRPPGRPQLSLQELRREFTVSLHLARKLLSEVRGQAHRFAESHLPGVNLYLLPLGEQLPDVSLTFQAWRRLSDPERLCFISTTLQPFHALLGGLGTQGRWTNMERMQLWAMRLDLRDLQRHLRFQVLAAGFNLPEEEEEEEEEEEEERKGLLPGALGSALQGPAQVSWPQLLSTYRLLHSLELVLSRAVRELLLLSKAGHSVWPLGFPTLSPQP
Text: (§1) Whole mouse spleens were harvested from C57 B1/6 mice and washed two times with 1×PBS before being plated out at 2×10^5 cells/well in assay media (RPMI 1640 plus 10% fetal bovine serum) in 96-well, round-bottom tissue culture plates. Total human PBMC (peripheral blood mononuclear cells) were thawed from a frozen vial collected from a leukapherisis donation and washed two times with 1×PBS before being plated out at 10^6 cells/well in assay media in 96-well, round-bottom tissue culture plates. […] Following pre-incubation, treatments were added to the plates containing the cells and incubated together at 37° C. for 15 minutes.
(§2) Following incubation, cells were washed with ice-cold wash buffer (BIO-PLEX Cell Lysis Kit, BIO-RAD Laboratories, Hercules, Calif.) and put on ice to stop the reaction according to manufacturer's instructions. […]
(§3) Capture beads (BIO-PLEX Phospho-Stat3 Assay, BIO-RAD Laboratories) were combined with 50 μL of 1:1 diluted lysates and added to a 96-well filter plate according to manufacture's instructions (BIO-PLEX Phosphoprotein Detection Kit, BIO-RAD Laboratories). […] After the final wash, beads were resuspended in 125 μL/well of bead suspension buffer, shaken for 30 seconds, and read on an array reader (BIO-PLEX, BIO-RAD Laboratories) according to the manufacture's instructions. Data were analyzed using analytical softward (BIO-PLEX MANAGER 3.0, BIO-RAD Laboratories). […]

mouse IL-27 = target: T2, mouse IL-27 (Mus musculus, UniProt O35228+Q8K3I6); experiment: IL-27 inhibition of IL-2 production neutralized by IL-27RA Fc; type: cell-based
T2 sequence (O35228+Q8K3I6 with tags, fused parts or gaps): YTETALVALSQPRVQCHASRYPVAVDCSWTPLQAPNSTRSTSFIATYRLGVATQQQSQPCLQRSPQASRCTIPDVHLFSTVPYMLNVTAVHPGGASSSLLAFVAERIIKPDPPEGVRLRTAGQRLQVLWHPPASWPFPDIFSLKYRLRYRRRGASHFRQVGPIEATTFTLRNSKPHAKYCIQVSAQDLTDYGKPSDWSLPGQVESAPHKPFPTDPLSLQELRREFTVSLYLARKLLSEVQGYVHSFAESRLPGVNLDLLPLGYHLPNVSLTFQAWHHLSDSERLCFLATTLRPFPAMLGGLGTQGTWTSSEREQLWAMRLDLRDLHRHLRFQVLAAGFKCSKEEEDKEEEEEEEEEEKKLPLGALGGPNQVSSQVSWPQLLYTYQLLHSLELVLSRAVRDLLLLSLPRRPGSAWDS
Protocol: For testing of the soluble receptor, single-chain mouse IL-27 (10 ng/ml) was preincubated for 30 minutes at 37 degrees C. with either IL27RAm(mFc1) (10.0 and 5.0 .micro.g/ml), IL27RA-Fc5, mouse Fc1 protein (10.0 and 5.0 .micro.g/ml), human Fc5 protein (10.0 and 5.0 .micro.g/ml), or no recombinant protein in wells of the anti-CD3 coated plates. 4×10^5 CD4^+ CD62L high cells were added to the wells. Duplicate plates were set up for all experimental conditions. The plates were then cultured at 37 degrees for up to 72 hours. Cell supernatants were collected from one set of plates at 48 hours and from the duplicate set of plates at 72 hours. The supernatants were stored frozen at −80° C.

muIL-27 [2] = target: T3, muIL-27 (Mus musculus, UniProt O35228+Q8K3I6); experiment: Phospho-STAT3 neutralization assay, mouse spleens, muIL-27; type: cell-based; conditions: ligand muIL-27 at EC90
T3 sequence (O35228 19-228): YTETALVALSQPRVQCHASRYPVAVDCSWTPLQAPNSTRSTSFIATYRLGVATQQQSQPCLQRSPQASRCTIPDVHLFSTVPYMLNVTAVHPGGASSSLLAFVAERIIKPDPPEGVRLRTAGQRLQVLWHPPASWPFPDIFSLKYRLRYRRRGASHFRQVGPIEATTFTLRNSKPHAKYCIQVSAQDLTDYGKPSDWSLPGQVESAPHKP
T3 sequence (Q8K3I6 29-234): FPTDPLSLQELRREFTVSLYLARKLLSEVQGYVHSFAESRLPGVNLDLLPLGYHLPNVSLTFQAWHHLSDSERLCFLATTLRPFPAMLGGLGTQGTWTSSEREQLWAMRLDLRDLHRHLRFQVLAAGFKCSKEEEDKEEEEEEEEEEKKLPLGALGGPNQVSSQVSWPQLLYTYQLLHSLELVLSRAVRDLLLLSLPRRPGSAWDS
Text: as §1, §2, §3

huIL-27 [3] = target: T1, huIL-27; experiment: Phospho-STAT3 neutralization assay, total human PBMCs, huIL-27; type: cell-based; conditions: Total Human PBMCs; ligand huIL-27 at EC90
Text: as §1, §2, §3

muIL-27 [4] = target: T3, muIL-27; experiment: Phospho-STAT3 neutralization assay, total human PBMCs, muIL-27; type: cell-based; conditions: ligand muIL-27 at EC90
Text: as §1, §2, §3

[5] = target: T4, mouse ligand (single-chain IL27) (Mus musculus, UniProt O35228+Q8K3I6); experiment: SPR kinetics of soluble receptors with mouse IL27 ligand; conditions: binding with mouse ligand; gp130 not included
T4 construct: amino-terminal peptide tag (FLAG in lot A1426F) (N)
T4 sequence (O35228+Q8K3I6 with tags, fused parts or gaps): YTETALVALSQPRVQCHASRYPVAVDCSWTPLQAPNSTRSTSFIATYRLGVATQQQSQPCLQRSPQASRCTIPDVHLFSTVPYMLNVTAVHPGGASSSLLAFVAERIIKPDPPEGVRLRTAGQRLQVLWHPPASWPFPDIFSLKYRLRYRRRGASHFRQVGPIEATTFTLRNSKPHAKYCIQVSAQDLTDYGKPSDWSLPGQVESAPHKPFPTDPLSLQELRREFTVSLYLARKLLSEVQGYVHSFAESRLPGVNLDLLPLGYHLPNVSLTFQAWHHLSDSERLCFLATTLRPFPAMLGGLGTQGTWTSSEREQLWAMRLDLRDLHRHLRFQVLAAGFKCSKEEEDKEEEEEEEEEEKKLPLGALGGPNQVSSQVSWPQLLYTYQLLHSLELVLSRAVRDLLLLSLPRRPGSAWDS
Protocol: Kinetic rate and affinity constant values for the mouse (IL27RAm(mFc1), Example 3) and human (IL27RA-Fc5, Example 4) soluble receptors were obtained by surface plasmon resonance (SPR) using an automated instrument (BIACORE 3000; Biacore International AB, Uppsala, Sweden). The mouse soluble receptor was tested against mouse ligand (lot A1418F), and the human soluble receptor was tested against both mouse (A1426F) and human (A1534F) ligands. For determination of the kinetic rate constants for the receptor-ligand interactions, the gp130 molecule was not included as part of the receptor complex.
The IL27 ligands used in this study were single-chain molecules comprising EBI3 connected by its C-terminus to the N-terminus of IL-27 p28 via a polypeptide linker. Each of the ligands included an amino-terminal peptide tag.
For the mouse IL27RA study, the soluble receptor was captured onto the chip surface by an isotype-specific anti-mouse Fc antibody (obtained from Jackson ImmunoResearch Laboratories, Inc., West Grove, Pa.) covalently immobilized to the chip (BIACORE CM5 chip) using the standard amine coupling protocol specified by the instrument manufacturer. […]
All data were assessed using software provided with the instrument (BIACORE Evaluation software v. 3.2). […]

[6] = Pharmacokinetics of soluble receptors in female C57B1/6 mice; type: in vivo, mouse; conditions: for clearance from the circulation, comparison in words: mouse Fc1 fusion versus human Fc5 fusion
Protocol: Studies were performed to evaluate the pharmacokinetics of the mouse (IL-27RAm(mFc1)) and human (IL-27RA-Fc5) soluble receptors in female C57B1/6 mice.
Serum was generated from each sample and analyzed by a qualified enzyme-linked immunosorbant assay (ELISA). The resulting mean serum concentration versus time profiles were then subjected to noncompartmental pharmacokinetic analyses. The following pharmacokinetic parameters were calculated: C0 and Cmax (extrapolated concentration at time zero and maximum serum concentration, respectively), Tmax (time to achieve maximum concentration), t1/2 λz (terminal half-life), AUC0-t (area under the concentration versus time curve from time zero to the last measurable time point), AUCINF (area under the concentration versus time curve extrapolated to infinity), Cl or Cl/F (clearance or clearance divided by bioavailable fraction, respectively), VSS or VZ/F (steady state volume of distribution or volume of distribution divided by the bioavailable fraction, respectively), and F (bioavailable fraction).

B1: IL-27RAm(mFc1): fusion protein comprising the extracellular domain of mouse IL27RA and a wild type BALB/c mouse gamma2a constant region Fc tag (protein)
chain: TRPHGSPGPLQCYSVGPLGILNCSWEPLGDLETPPVLYHQSQKYHPNRVWEVKVPSKQSWVTIPREQFTMADKLLIWGTQKGRPLWSSVSVNLETQMKPDTPQIFSQVDISEEATLEATVQWAPPVWPPQKVLICQFRYKECQAETWTRLEPQLKTDGLTPVEMQNLEPGTCYQVSGRCQVENGYPWGEWSSPLSFQTPFLDPEDVWVSGTVCETSGKRAALLVWKDPRPCVQVTYTVWFGAGDITTTQEEVPCCKSPVPAWMEWAVVSPGNSTSWVPPTNLSLVCLAPESAPCDVGVSSADGSPGIKVTWKQGTRKPLEYVVDWAQDGDSLDKLNWTRLPPGNLSTLLPGEFKGGVPYRITVTAVYSGGLAAAPSVWGFREELVPLAGPAVWRLPDDPPGTPVVAWGEVPRHQLRGQATHYTFCIQSRGLSTVCRNVSSQTQTATLPNLHLGSFKLWVTVSTVAGQGPPGPNLSLHLPDNRIRWK
huIL-27 [1]
  IC50: 9.3 nM
Mouse IL-27; 48 hr, protein conc. 5 (µg/ml; Fc controls in molar equiv.) + IL-27 10 ng/ml
  IL-2 concentration: 4021.15 pg/mL
Mouse IL-27; 48 hr, protein conc. 10 (µg/ml; Fc controls in molar equiv.) + IL-27 10 ng/ml, listed as mIL-27RA
  IL-2 concentration: 5215.59 pg/mL and 4922.26 pg/mL
Mouse IL-27; 72 hr, protein conc. 5 (µg/ml; Fc controls in molar equiv.) + IL-27 10 ng/ml
  IL-2 concentration: 5744.95 pg/mL
Mouse IL-27; 72 hr, protein conc. 10 (µg/ml; Fc controls in molar equiv.) + IL-27 10 ng/ml, listed as mIL-27RA
  IL-2 concentration: 6704.62 pg/mL and 12186.7 pg/mL
Mouse IL-27; naïve CD4 T cells
  inhibition (partial block) of the ability of mouse IL-27 to inhibit IL-2 production: ~50%
muIL-27 [2]
  IC50: 0.18 nM
huIL-27 [3]
  IC50: 1370 nM
muIL-27 [4]
  IC50: 4.83 nM
[5]
  ka: 1e+07 M⁻¹ s⁻¹
  kd: 0.0012 s⁻¹
[6]; IP, 100 μg
  AUC0-24: 98.2 µg·h/mL
  AUCINF: 102 µg·h/mL
  Cl/F: 0.983 mL/h
  Tmax: 1 h
  t1/2 λz: 5.17 h
[6]; IP, 100 μg, serum
  Cmax: 13200 ng/mL
[6]; IV, 100 μg
  AUC0-24: 157 µg·h/mL
  AUCINF: 162 µg·h/mL
  Cl: 0.618 mL/h
  Vss: 3.05 mL
  t1/2 λz: 5.25 h
[6]; IV, 100 μg, serum
  Co: 36.2 µg/mL
[6]; SC, 100 μg
  AUC0-24: 56.5 µg·h/mL
  Tmax: 3 h
[6]; SC, 100 μg, serum
  Cmax: 7950 ng/mL
[6]
  clearance from the circulation, comparison in words: more rapid clearance
[6]; listed as Zcytor1 fragment polypeptide joined to a wild-type murine immunoglobulin gamma2a
  clearance from the circulation, comparison in words: rapidly cleared from the circulation
